In patent US20160152995A1, “METHODS AND COMPOSITIONS TO IMPROVE THE SPREAD OF CHEMICAL SIGNALS IN PLANTS” (PIONEER HI-BRED INTERNATIONAL, INC., priority 2013, published 2016):
Changes are numbered by the printed parent chain.

B1: CsL4.2-22 (protein)
chain: MARLDKSKVINSALELLNEVGIEGLTTRKLAQKLGVEQPTLYWHVKNKRALLDALAIEMHDRHQTHYLPLEGESWQDFLRNFAKSMRRALLSHRDGAKIALGTRWTEQQYETAENMLAFLTQQGFSLENALYATDAVRVFTLGAVLLDQEQQVAKEERETPTPDSMPPLLRQAWELKDHQGAEPAFLFGLELIIAGLEKQLKRESGSHHHHHH
modifications: Sulfonylurea responsive repressor
B2: CsL4.2-24 (protein)
chain: B1 chain with F78Y, R88C, I99V, D135S, Q151G, K155N, D178V
modifications: Sulfonylurea responsive repressor
B3: CsL4.2-16 (protein)
chain: B1 chain with H60M, F78Y, R88C, I99V, A100S, Q151G, K155N, S165R, D178V
modifications: Sulfonylurea responsive repressor
B4: CsL4.2-21 (protein)
chain: B1 chain with H60M, Q64G, F82Y, I99V, F119C, D135S, K155N, P163T, D178V
modifications: Sulfonylurea responsive repressor
B5: CsL4.2-28 (protein)
chain: B1 chain with H60M, F78Y, R88C, I99V, D135S, E156Q, D178V
modifications: Sulfonylurea responsive repressor
B6: CsL4.2-07 (protein)
chain: B1 chain with F78Y, R88C, D178V
modifications: Sulfonylurea responsive repressor
B7: CsL4.2-08 (protein)
chain: B1 chain with H60M, I99V, Q123H, D178V, H210Q
modifications: Sulfonylurea responsive repressor
B8: CsL4.2-15: top CsR hit of library CsL4.2 (protein)
chain: MARLDKSKVINSALELLNEVGIEGLTTRKLAQKLGVEQPTLYWHVKNKRALLDALAIEMHDRHQTHYLPLEGESWQDFLRNFAKSMRRALLSHRDGAKVSLGTRWTEQQYETAENMLAFLTQQGFSLENALYATDAVRVFTLGAVLLDQEQQVAKEERETPTTDSMPPLLRQAWELKVHQGAEPAFLFGLELIIAGLEKQLKRESGS
modifications: Sulfonylurea responsive repressor
B9: L8-3F08 (protein)
chain: MARLDKSKVINSALELLNEVGIEGLTTRKLAQKLGVEQPTLYWHVKNKRALLDALAIEMMDRHQTHYSPLEGESWQDFLRNNAKSCRNALLSHRDGAKVVLGTRWTEQQYESAENMLAFLTQQGFSLENAMYALEAARIFTLGWVLFDQESQVAKEERETPTTDSMPPLLRQAWELKDHQGAEPAFLFGLELIIRGLEKQLKSESGS
modifications: Sulfonylurea responsive repressor
B10: L8-1A06 (protein)
chain: MARLDKSKVINSALELLNEVGIEGLTTRKLAQKLGVEQPTLYWHVKNKRALLDALAIEMMDRHQTHYSPLEGESWQDFLRNNAKSCRRAVLSHRDGAKVCLGTRWTEQQYESAENMLAFLTQQGFSLENALYAVSAVRVFTLGAVLFDQESQVAKEERETPTTDSMPPLLRQAWELKDHQGAEPAFLFGLELIIAGLEKQLKRESGS
modifications: Sulfonylurea responsive repressor
B11: L8-3A06 (protein)
chain: B10 chain with S68L, R88N, V90L, A195S
modifications: Sulfonylurea responsive repressor
B12: L8-2H01 (protein)
chain: B10 chain with V90L, V134L, S135E, A195R
modifications: Sulfonylurea responsive repressor
B13: L8-3B03 (protein)
chain: B10 chain with S68L, V90L, A195R, R203S
modifications: Sulfonylurea responsive repressor
B14: L8-1A05 (protein)
chain: B10 chain with V90L, S135D, R203A
modifications: Sulfonylurea responsive repressor
B15: L8-1E04 (protein)
chain: B10 chain with S68L, R88N, V90L, F147Y, A195R, R203A
modifications: Sulfonylurea responsive repressor

Test system: E. coli assay strain Km3
Test: Liquid B-galactosidase assays of chlorsulfuron repressor hits (induction and repression)
Conditions: CsL4.2 hits; 20 ppb Cs vs no inducer
Experimental: In order to create new diversity for shuffling the top clone from CsL3 was subjected to error prone PCR mutagenesis using Mutazyme (Stratagene). The mutated PCR product encoding the CsR ligand binding domain was inserted into library expression vector pVER7334 as a Sac1 to Asc1 fragment, transformed into library strain Km3 and plated onto LB+40 ug/ml Kanamycin and 50 ug/ml Carbenecillin. Approximately 10,000 colonies were then replica plated onto M9 Xgal assay medium +/−20 ppb Cs. Putative hits were then re-arrayed and replica plated onto the same assay medium. Performance was gauged by the level of blue colony color after 24 hrs incubation on inducer (induction) and 72 hrs incubation without inducer (repression). The top hits were then subjected to liquid B-galactosidase assays for quantitative assessment (Table 21).
Seventh round library CsL4.2 was designed based on the best diversity from CsL3 and CsL3-MTZ library screens (Table 14). The library was assembled with oligonucleotides shown below in Table 22. The first and last primers were used as rescue primers. CsL4.2 included a C-terminal 6×His-tag extension to facilitate protein purification. The library was assembled and cloned into vector pVER7334 Sac1 to Asc1, transformed into library assay strain Km3 and plated onto LB+40 ug/m1 Kanamycin and 50 ug/ml carbenecillin. Approximately 8,000 colonies were re-arrayed into 384-well format and replica plated onto M9 Xgal assay medium +/−2 ppb Cs. Putative hits were re-arrayed in 96-well format onto the same media for re-testing. Confirmed hits were then tested for induction and repression aspects in liquid culture using B-galactosidase assays.
Mutagenesis reactions were transformed into E. coli assay strain Km3 and plated onto LB+50 ug/ml Carbenecillin. Colonies were then re-arrayed into 384 well format and replica plated onto M9 Xgal assay medium +/−5 ppb Chlorsulfuron. Putative hits were then re-arrayed and analyzed by B-galactosidase assays relative to the parent clones (FIG. 10).

Row | Molecule | F. IND = fold induction (IND/REP) (B-galactosidase)
1 | B1 | 20.8
2 | B2 | 14.3
3 | B3 | 15.2
4 | B4 | 13.2
5 | B5 | 11.3
6 | B6 | 18.9

Same assay, conditions: CsL4.2 hits; liquid B-galactosidase assay, 20 ppb Cs

Row | Molecule | IND = induction with 20 ppb CS (B-galactosidase)
7 | B1 | 5.4
8 | B2 | 5.4
9 | B3 | 3.8
10 | B4 | 3.2
11 | B5 | 5.3
12 | B7 | 10.7
13 | B6 | 6.5
14 | B8 | 4.0

Same assay, conditions: CsL4.2 hits; liquid B-galactosidase assay, no inducer

Row | Molecule | REP = repression in absence of inducer (B-galactosidase)
15 | B1 | 0.3
16 | B2 | 0.4
17 | B3 | 0.3
18 | B4 | 0.2
19 | B5 | 0.5
20 | B7 | 0.7
21 | B6 | 0.3
22 | B8 | 0.2

Test system: E. coli assay strain Km3
Test: not given
Format: cell-based
Conditions: library L8 hits; M9 Xgal colony assay; 200 ppb Chlorsulfuron; 24 hrs
Experimental: Library L6 was assembled, rescued, ligated into pVER7314, transformed into E. coli KM3 and plated out onto LB carbenicillin/kanamycin, and carbenicillin only control media as before. Library plates were then picked into 42 384-well microtiter plates (˜16,000 clones) containing 60 μl LB carbenicillin (Cb) broth per well. After overnight growth at 37° C. the cultures were stamped onto M9 assay plates containing no inducer, 0.2 ppm, and 2.0 ppm chlorsulfuron as test inducer. Following incubation at 30° C. for ˜48 hrs, putative hits responding to chlorsulfuron treatment as determined by increased blue colony color were re-arrayed into six 96-well microtiter plates and used to stamp a fresh set of M9 assay plates to confirm the above results. For a more detailed analysis of the relative induction by chlorsulfuron, digital photographs were taken of the plates after various time points of incubation at 30° C. and colony color intensity measured using the digital image analysis freeware program ImageJ (Rasband, US National Institutes of Health, Bethesda, Md., USA, rsb.info.nih.gov/ij/, 1997-2007). […] From this analysis sequence-activity relationships were derived. […] Briefly, C at position 100, and Q at positions 108 and 109 strongly correlated with activation, while R at position 138, L at position 170, and A or G at position 173 were highly preferred in clones with the lowest background activity. […] This information will aid in the design of further libraries to improve responsiveness to chlorsulfuron.
Library L8 construction and screening. Fourth round shuffling incorporated the best diversity from Rd3 shuffling (BB1860) as well as computational diversity (Table 14). As diversity was very high the library oligo mix was spiked into the parental hit variant oligo mix (5, 10, and 25% mixes) to titer down the number of residue changes per clone. In addition, to varying residues for Cs activity, seven residues (C68, C86, C88, C121, C144, C195, and C203) were varied with TetR family phylogenetic substitutions in an attempt to reduce the number of cysteine residues in the repressor. The PCR assembled libraries were cloned Sac1/Asc1 into pVER7334. This plasmid encodes PBAD promoter controlled expression of a plant optimized TetR DNA binding domain fused to the wt ligand binding domain of TetR(B) encoded by native Tn10 sequence on a Sac1 to Asc1 fragment. Approximately 15,000 clones were screened for blue colony color on the M9 Xgal assay plates +/−200 ppb Chlorsulfuron (Cs). Clones were ranked by ratio of color with inducer after 24 hrs incubation over colony color without inducer for 48 hrs of incubation. The sequence trend in the overall larger population of hits (first re-array) was that L55, R104, W105 and L170 were maintained while the C144A substitution was highly preferred. Sequence trends within the hit population were then noted with respect to repression, induction and fold induction (which corrects for leakiness).
Mutagenesis reactions were transformed into library strain Km3 and 96 colonies tested for substitution by DNA sequence analysis. Substitutions representing each possible residue at each position were then re-arrayed in triplicate onto M9 X-gal assay plates with 0, 20 and 200 ppb Chlorsulfuron. Plates were incubated at 37° C. for 24 and 48 hrs prior to imaging. Residue substitutions were then ranked by activation (emphasis on 20 ppb Cs) and repression characteristics (emphasis on 48 hr time point). The mutation with the greatest impact on activity was substitution of residue N82 to phenylalanine or tyrosine. […] All other preferred substitutions shown in Table 18 either improved repression or improved sensitivity to inducer without compromising repressor function. Certain residues were indispensible to function such as R104, W105, and W174 as substitutions were not allowed. Other residue positions such as R138 and K177 were also flagged as critical since functional substitutions were extremely limited. […]

Row | Molecule | IND = induction with 200 ppb Cs at 24 hrs (blue colony color intensity thru ImageJ analysis)
23 | B9 | 1.5
24 | B10 | 2.1
25 | B11 | 0.3
26 | B12 | 12.9
27 | B13 | 0.6
28 | B14 | 10.8
29 | B15 | 1.5

Same assay, conditions: library L8 hits; M9 Xgal colony assay; ratio IND (200 ppb Cs, 24 hrs) / REP (48 hrs)

Row | Molecule | F. IND = fold induction: induction with 200 ppb Cs at 24 hrs/repression at 48 hrs
30 | B9 | 2.7
31 | B10 | 2.7
32 | B11 | 2.6
33 | B12 | 2.7
34 | B13 | 2.4
35 | B14 | 2.5
36 | B15 | 2.5

Same assay, conditions: library L8 hits; M9 Xgal colony assay; without inducer; 48 hrs

Row | Molecule | REP = repression measured without inducer after 48 hrs (blue colony color intensity thru ImageJ analysis)
37 | B9 | 0.6
38 | B10 | 0.8
39 | B11 | 0.1
40 | B12 | 4.8
41 | B13 | 0.3
42 | B14 | 4.4
43 | B15 | 0.6
